To fix the notation:
B1: Compound 96 (peptide)
peptide: Palmitoyl-EIKKSWSRWTLALDFKRKAR-NH2
SMILES: CCCCCCCCCCCCCCCC(=O)N[C@@H](CCC(=O)O)C(=O)N[C@H](C(=O)N[C@@H](CCCCN)C(=O)N[C@@H](CCCCN)C(=O)N[C@@H](CO)C(=O)N[C@@H](Cc1c[nH]c2ccccc12)C(=O)N[C@@H](CO)C(=O)N[C@@H](CCCNC(=N)N)C(=O)N[C@@H](Cc1c[nH]c2ccccc12)C(=O)N[C@H](C(=O)N[C@@H](CC(C)C)C(=O)N[C@@H](C)C(=O)N[C@@H](CC(C)C)C(=O)N[C@@H](CC(=O)O)C(=O)N[C@@H](Cc1ccccc1)C(=O)N[C@@H](CCCCN)C(=O)N[C@@H](CCCNC(=N)N)C(=O)N[C@@H](CCCCN)C(=O)N[C@@H](C)C(=O)N[C@@H](CCCNC(=N)N)C(N)=O)[C@@H](C)O)[C@@H](C)CC
B2: Compound 101 (peptide)
peptide: Palmitoyl-NGEVQAEIKKSWSRWT-NH2
SMILES: CCCCCCCCCCCCCCCC(=O)N[C@@H](CC(N)=O)C(=O)NCC(=O)N[C@@H](CCC(=O)O)C(=O)N[C@H](C(=O)N[C@@H](CCC(N)=O)C(=O)N[C@@H](C)C(=O)N[C@@H](CCC(=O)O)C(=O)N[C@H](C(=O)N[C@@H](CCCCN)C(=O)N[C@@H](CCCCN)C(=O)N[C@@H](CO)C(=O)N[C@@H](Cc1c[nH]c2ccccc12)C(=O)N[C@@H](CO)C(=O)N[C@@H](CCCNC(=N)N)C(=O)N[C@@H](Cc1c[nH]c2ccccc12)C(=O)N[C@H](C(N)=O)[C@@H](C)O)[C@@H](C)CC)C(C)C
B3: Compound 42 (peptide)
peptide: Palmitoyl-GSEKKYLWGFT-NH2
SMILES: CCCCCCCCCCCCCCCC(=O)NCC(=O)N[C@@H](CO)C(=O)N[C@@H](CCC(=O)O)C(=O)N[C@@H](CCCCN)C(=O)N[C@@H](CCCCN)C(=O)N[C@@H](Cc1ccc(O)cc1)C(=O)N[C@@H](CC(C)C)C(=O)N[C@@H](Cc1c[nH]c2ccccc12)C(=O)NCC(=O)N[C@@H](Cc1ccccc1)C(=O)N[C@H](C(N)=O)[C@@H](C)O
B4: Compound 103 (peptide)
peptide: Palmitoyl-WTLALDFKRKAR-NH2
SMILES: CCCCCCCCCCCCCCCC(=O)N[C@@H](Cc1c[nH]c2ccccc12)C(=O)N[C@H](C(=O)N[C@@H](CC(C)C)C(=O)N[C@@H](C)C(=O)N[C@@H](CC(C)C)C(=O)N[C@@H](CC(=O)O)C(=O)N[C@@H](Cc1ccccc1)C(=O)N[C@@H](CCCCN)C(=O)N[C@@H](CCCNC(=N)N)C(=O)N[C@@H](CCCCN)C(=O)N[C@@H](C)C(=O)N[C@@H](CCCNC(=N)N)C(N)=O)[C@@H](C)O
B5: Compound 100 (peptide)
peptide: Palmitoyl-NGEVQAEIKKSWSR-NH2
SMILES: CCCCCCCCCCCCCCCC(=O)N[C@@H](CC(N)=O)C(=O)NCC(=O)N[C@@H](CCC(=O)O)C(=O)N[C@H](C(=O)N[C@@H](CCC(N)=O)C(=O)N[C@@H](C)C(=O)N[C@@H](CCC(=O)O)C(=O)N[C@H](C(=O)N[C@@H](CCCCN)C(=O)N[C@@H](CCCCN)C(=O)N[C@@H](CO)C(=O)N[C@@H](Cc1c[nH]c2ccccc12)C(=O)N[C@@H](CO)C(=O)N[C@@H](CCCNC(=N)N)C(N)=O)[C@@H](C)CC)C(C)C
B6: Compound 16 (peptide)
peptide: Palmitoyl-RRLHSTRNYIHMHL-NH2
SMILES: CCCCCCCCCCCCCCCC(=O)N[C@@H](CCCNC(=N)N)C(=O)N[C@@H](CCCNC(=N)N)C(=O)N[C@@H](CC(C)C)C(=O)N[C@@H](Cc1c[nH]cn1)C(=O)N[C@@H](CO)C(=O)N[C@H](C(=O)N[C@@H](CCCNC(=N)N)C(=O)N[C@@H](CC(N)=O)C(=O)N[C@@H](Cc1ccc(O)cc1)C(=O)N[C@H](C(=O)N[C@@H](Cc1c[nH]cn1)C(=O)N[C@@H](CCSC)C(=O)N[C@@H](Cc1c[nH]cn1)C(=O)N[C@@H](CC(C)C)C(N)=O)[C@@H](C)CC)[C@@H](C)O
B7: Compound 99 (peptide)
peptide: Palmitoyl-NGEVQAEIKKSW-NH2
SMILES: CCCCCCCCCCCCCCCC(=O)N[C@@H](CC(N)=O)C(=O)NCC(=O)N[C@@H](CCC(=O)O)C(=O)N[C@H](C(=O)N[C@@H](CCC(N)=O)C(=O)N[C@@H](C)C(=O)N[C@@H](CCC(=O)O)C(=O)N[C@H](C(=O)N[C@@H](CCCCN)C(=O)N[C@@H](CCCCN)C(=O)N[C@@H](CO)C(=O)N[C@@H](Cc1c[nH]c2ccccc12)C(N)=O)[C@@H](C)CC)C(C)C
B8: Compound 98 (peptide)
peptide: Palmitoyl-NGEVQAEIKKSWSRWTLA-NH2
SMILES: CCCCCCCCCCCCCCCC(=O)N[C@@H](CC(N)=O)C(=O)NCC(=O)N[C@@H](CCC(=O)O)C(=O)N[C@H](C(=O)N[C@@H](CCC(N)=O)C(=O)N[C@@H](C)C(=O)N[C@@H](CCC(=O)O)C(=O)N[C@H](C(=O)N[C@@H](CCCCN)C(=O)N[C@@H](CCCCN)C(=O)N[C@@H](CO)C(=O)N[C@@H](Cc1c[nH]c2ccccc12)C(=O)N[C@@H](CO)C(=O)N[C@@H](CCCNC(=N)N)C(=O)N[C@@H](Cc1c[nH]c2ccccc12)C(=O)N[C@H](C(=O)N[C@@H](CC(C)C)C(=O)N[C@@H](C)C(N)=O)[C@@H](C)O)[C@@H](C)CC)C(C)C
B9: Compound 41 (peptide)
peptide: Palmitoyl-GSEKKYLWGFTVF-NH2
SMILES: CCCCCCCCCCCCCCCC(=O)NCC(=O)N[C@@H](CO)C(=O)N[C@@H](CCC(=O)O)C(=O)N[C@@H](CCCCN)C(=O)N[C@@H](CCCCN)C(=O)N[C@@H](Cc1ccc(O)cc1)C(=O)N[C@@H](CC(C)C)C(=O)N[C@@H](Cc1c[nH]c2ccccc12)C(=O)NCC(=O)N[C@@H](Cc1ccccc1)C(=O)N[C@H](C(=O)N[C@H](C(=O)N[C@@H](Cc1ccccc1)C(N)=O)C(C)C)[C@@H](C)O
B10: Compound 43 (peptide)
peptide: Palmitoyl-GSEKKYLWG-NH2
SMILES: CCCCCCCCCCCCCCCC(=O)NCC(=O)N[C@@H](CO)C(=O)N[C@@H](CCC(=O)O)C(=O)N[C@@H](CCCCN)C(=O)N[C@@H](CCCCN)C(=O)N[C@@H](Cc1ccc(O)cc1)C(=O)N[C@@H](CC(C)C)C(=O)N[C@@H](Cc1c[nH]c2ccccc12)C(=O)NCC(N)=O
B11: Compound 5 (peptide)
peptide: Palmitoyl-LAYFRRLHSTRNYIH-NH2
SMILES: CCCCCCCCCCCCCCCC(=O)N[C@@H](CC(C)C)C(=O)N[C@@H](C)C(=O)N[C@@H](Cc1ccc(O)cc1)C(=O)N[C@@H](Cc1ccccc1)C(=O)N[C@@H](CCCNC(=N)N)C(=O)N[C@@H](CCCNC(=N)N)C(=O)N[C@@H](CC(C)C)C(=O)N[C@@H](Cc1c[nH]cn1)C(=O)N[C@@H](CO)C(=O)N[C@H](C(=O)N[C@@H](CCCNC(=N)N)C(=O)N[C@@H](CC(N)=O)C(=O)N[C@@H](Cc1ccc(O)cc1)C(=O)N[C@H](C(=O)N[C@@H](Cc1c[nH]cn1)C(N)=O)[C@@H](C)CC)[C@@H](C)O
B12: Compound 17 (peptide)
peptide: Palmitoyl-SGRRLHSTRNYIHMH-NH2
SMILES: CCCCCCCCCCCCCCCC(=O)N[C@@H](CO)C(=O)NCC(=O)N[C@@H](CCCNC(=N)N)C(=O)N[C@@H](CCCNC(=N)N)C(=O)N[C@@H](CC(C)C)C(=O)N[C@@H](Cc1c[nH]cn1)C(=O)N[C@@H](CO)C(=O)N[C@H](C(=O)N[C@@H](CCCNC(=N)N)C(=O)N[C@@H](CC(N)=O)C(=O)N[C@@H](Cc1ccc(O)cc1)C(=O)N[C@H](C(=O)N[C@@H](Cc1c[nH]cn1)C(=O)N[C@@H](CCSC)C(=O)N[C@@H](Cc1c[nH]cn1)C(N)=O)[C@@H](C)CC)[C@@H](C)O
B13: Compound 97 (peptide)
peptide: Palmitoyl-KKSWSRWTLALDFKRKAR-NH2
SMILES: CCCCCCCCCCCCCCCC(=O)N[C@@H](CCCCN)C(=O)N[C@@H](CCCCN)C(=O)N[C@@H](CO)C(=O)N[C@@H](Cc1c[nH]c2ccccc12)C(=O)N[C@@H](CO)C(=O)N[C@@H](CCCNC(=N)N)C(=O)N[C@@H](Cc1c[nH]c2ccccc12)C(=O)N[C@H](C(=O)N[C@@H](CC(C)C)C(=O)N[C@@H](C)C(=O)N[C@@H](CC(C)C)C(=O)N[C@@H](CC(=O)O)C(=O)N[C@@H](Cc1ccccc1)C(=O)N[C@@H](CCCCN)C(=O)N[C@@H](CCCNC(=N)N)C(=O)N[C@@H](CCCCN)C(=O)N[C@@H](C)C(=O)N[C@@H](CCCNC(=N)N)C(N)=O)[C@@H](C)O
B14: Compound 104 (peptide)
peptide: Palmitoyl-SRWTLALDFKRKAR-NH2
SMILES: CCCCCCCCCCCCCCCC(=O)N[C@@H](CO)C(=O)N[C@@H](CCCNC(=N)N)C(=O)N[C@@H](Cc1c[nH]c2ccccc12)C(=O)N[C@H](C(=O)N[C@@H](CC(C)C)C(=O)N[C@@H](C)C(=O)N[C@@H](CC(C)C)C(=O)N[C@@H](CC(=O)O)C(=O)N[C@@H](Cc1ccccc1)C(=O)N[C@@H](CCCCN)C(=O)N[C@@H](CCCNC(=N)N)C(=O)N[C@@H](CCCCN)C(=O)N[C@@H](C)C(=O)N[C@@H](CCCNC(=N)N)C(N)=O)[C@@H](C)O

* marks the point of attachment. Palmitoyl = CCCCCCCCCCCCCCCC(=O)*

The target of this experiment is PTHR1 receptor.
PTHR1 receptor, sequence (P25961 whole entry): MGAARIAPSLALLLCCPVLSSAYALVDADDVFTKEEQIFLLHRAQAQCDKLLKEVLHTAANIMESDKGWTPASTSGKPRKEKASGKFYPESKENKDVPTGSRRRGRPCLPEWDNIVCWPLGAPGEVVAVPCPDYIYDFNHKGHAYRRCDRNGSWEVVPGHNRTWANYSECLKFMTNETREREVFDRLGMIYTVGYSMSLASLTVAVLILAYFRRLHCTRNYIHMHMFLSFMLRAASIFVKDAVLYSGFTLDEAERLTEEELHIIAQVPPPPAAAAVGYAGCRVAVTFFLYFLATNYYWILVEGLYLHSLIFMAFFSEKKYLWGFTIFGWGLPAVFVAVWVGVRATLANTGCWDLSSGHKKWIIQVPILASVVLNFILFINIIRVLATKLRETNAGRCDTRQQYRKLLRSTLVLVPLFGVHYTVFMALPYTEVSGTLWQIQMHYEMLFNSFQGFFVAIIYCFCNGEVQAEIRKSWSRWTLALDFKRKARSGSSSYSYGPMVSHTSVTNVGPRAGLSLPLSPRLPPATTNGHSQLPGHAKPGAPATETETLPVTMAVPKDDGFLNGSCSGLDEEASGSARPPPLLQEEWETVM
For the molecule B1, the Fold Shift of EC50 was 1.1 fold and the Inhibition of Maximal Response stood at 7%.

Consider B2, for which the Fold Shift of EC50 is 1.2 fold and the Inhibition of Maximal Response was determined as 25.3%.

Take B3: the Fold Shift of EC50 came out at 1.3 fold and the Inhibition of Maximal Response is 40.8%.

For B4, the Fold Shift of EC50 worked out at 1.2 fold and the Inhibition of Maximal Response is -7.3%.

Turning to B5, the Fold Shift of EC50 amounted to 1.8 fold and the Inhibition of Maximal Response came to 26.8%.

In the case of B6, the Fold Shift of EC50 stood at 2.45 fold and the Inhibition of Maximal Response is 0.0965.

For the molecule B7, the Fold Shift of EC50 was determined as 1 fold and the Inhibition of Maximal Response is 17.5%.

With B8, the Fold Shift of EC50 stood at 1 fold and the Inhibition of Maximal Response was 0.5%.

With B9, the Fold Shift of EC50 was found to be 0.9 fold and the Inhibition of Maximal Response came out at 17.7%.

Regarding B10, the Fold Shift of EC50 worked out at 1.4 fold and the Inhibition of Maximal Response worked out at 5.7%.

For B11, the Fold Shift of EC50 was 1 fold and the Inhibition of Maximal Response was 13%.

Consider B12, for which the Fold Shift of EC50 amounted to 2.8 fold and the Inhibition of Maximal Response turned out to be 39.4%.

On to B13, for which the Fold Shift of EC50 was determined as 4.7 fold and the Inhibition of Maximal Response amounted to 37.2%.

With B14, the Fold Shift of EC50 was 1.2 fold and the Inhibition of Maximal Response was 26.8%.
